Paper PMC11969024 (2025)

B1: peptide HD2 (from tick evasin EVA4) / CCL1 (biotinylated, synthetic) (parent complex)
chain 1: EEDDYTAYAPLTCYFT
chain 2: KSMQVPFSRCCFSFAEQEIPLRAILCYRNTSSICSNEGLIFKLKRGKEACALDTVGWVQRHRKMLRHCPSKRK
B2: peptide HD2 (from tick evasin EVA4) / CXCL14 (biotinylated, synthetic) (parent complex)
chain 1: EEDDYTAYAPLTCYFT
chain 2: SKCKCSRKGPKIRYSDVKKLEMKPKYPHCEEKMVIITTKSVSRYRGQEHCLHPKLQSTKRFIKWYNAWNEKRRVYEE

Variants of: B1

| Variant | enrichment |
| --- | --- |
| chain 1 A9E | 2.72 log2 (difference from the parental peptide) |
| chain 1 A9Y | -5.89 log2 (difference from the parental peptide) |
| chain 1 D3E | 1.49 log2 (difference from the parental peptide) |
| chain 1 L11R | 0.643 log2 (difference from the parental peptide) |
| chain 1 L11W | -0.114 log2 (difference from the parental peptide) |
| chain 1 L11A | -2.67 log2 (difference from the parental peptide) |
| chain 1 L11Q | 1.31 log2 (difference from the parental peptide) |
| chain 1 L11S | -4.97 log2 (difference from the parental peptide) |
| chain 1 Y14F | 0.0997 log2 (difference from the parental peptide) |
| chain 1 Y14I | -4.18 log2 (difference from the parental peptide) |
| chain 1 E2H | -3.7 log2 (difference from the parental peptide) |
| chain 1 A7N | -1.23 log2 (difference from the parental peptide) |
| chain 1 A7H | -2.76 log2 (difference from the parental peptide) |
| chain 1 A7L | -2.16 log2 (difference from the parental peptide) |
| chain 1 A7M | 1.33 log2 (difference from the parental peptide) |
| chain 1 A7F | -3.93 log2 (difference from the parental peptide) |
| chain 1 D4I | -6.7 log2 (difference from the parental peptide) |
| chain 1 D4H | -7 log2 (difference from the parental peptide) |
| chain 1 D4F | -6.41 log2 (difference from the parental peptide) |
| chain 1 F15S | -0.0654 log2 (difference from the parental peptide) |
| chain 1 F15A | 2.04 log2 (difference from the parental peptide) |
| chain 1 F15N | -1.79 log2 (difference from the parental peptide) |

| Variant | enrichment |
| --- | --- |
| chain 1 Y8L | -7.27 log2 (difference from the parental peptide) |
| chain 1 Y8V | -4.63 log2 (difference from the parental peptide) |
| chain 1 Y8F | -0.41 log2 (difference from the parental peptide) |
| chain 1 C13G | -9.66 log2 (difference from the parental peptide) |
| chain 1 C13S | -4.71 log2 (difference from the parental peptide) |
| chain 1 Y5L | -5.06 log2 (difference from the parental peptide) |
| chain 1 T12Y | 1.88 log2 (difference from the parental peptide) |
| chain 1 T12V | -1.56 log2 (difference from the parental peptide) |
| chain 1 T12P | 0.359 log2 (difference from the parental peptide) |
| chain 1 T12C | -5.86 log2 (difference from the parental peptide) |
| chain 1 T12R | -1.56 log2 (difference from the parental peptide) |
| chain 1 T12S | -1.12 log2 (difference from the parental peptide) |
| chain 1 T6C | -10.4 log2 (difference from the parental peptide) |
| chain 1 T6V | -5.45 log2 (difference from the parental peptide) |
| chain 1 T6E | 3.09 log2 (difference from the parental peptide) |
| chain 1 T6F | -4.18 log2 (difference from the parental peptide) |
| chain 1 T6Q | 1.62 log2 (difference from the parental peptide) |
| chain 1 T16F | -0.729 log2 (difference from the parental peptide) |
| chain 1 T16C | 0.749 log2 (difference from the parental peptide) |
| chain 1 T16N | -0.351 log2 (difference from the parental peptide) |
| chain 1 E1G | -1.01 log2 (difference from the parental peptide) |

Variants of: B2

| Variant | enrichment |
| --- | --- |
| chain 1 Y8W | 0.649 log2 (difference from the parental peptide) |
| chain 1 Y8V | 3.87 log2 (difference from the parental peptide) |
| chain 1 Y8F | -1.72 log2 (difference from the parental peptide) |
| chain 1 Y8D | 2.61 log2 (difference from the parental peptide) |
| chain 1 Y8I | -6.06 log2 (difference from the parental peptide) |
| chain 1 A7V | -1.42 log2 (difference from the parental peptide) |
| chain 1 A7D | 3.18 log2 (difference from the parental peptide) |
| chain 1 A7E | 2.45 log2 (difference from the parental peptide) |
| chain 1 A7L | 0.408 log2 (difference from the parental peptide) |
| chain 1 A7K | 3.78 log2 (difference from the parental peptide) |
| chain 1 A7F | 2.13 log2 (difference from the parental peptide) |
| chain 1 A7N | 2.93 log2 (difference from the parental peptide) |
| chain 1 A7Q | -3.16 log2 (difference from the parental peptide) |
| chain 1 A7I | 0.79 log2 (difference from the parental peptide) |
| chain 1 A7P | -3.32 log2 (difference from the parental peptide) |
| chain 1 A7M | -3.2 log2 (difference from the parental peptide) |

| Variant | enrichment |
| --- | --- |
| chain 1 T12S | -7.83 log2 (difference from the parental peptide) |
| chain 1 T12Q | -4.89 log2 (difference from the parental peptide) |
| chain 1 T12R | -7.34 log2 (difference from the parental peptide) |
| chain 1 T12K | -5.85 log2 (difference from the parental peptide) |
| chain 1 T12C | -5.89 log2 (difference from the parental peptide) |
| chain 1 T12H | -1.2 log2 (difference from the parental peptide) |
| chain 1 T12L | 1.89 log2 (difference from the parental peptide) |
| chain 1 T12F | 2.31 log2 (difference from the parental peptide) |
| chain 1 T12Y | 2.9 log2 (difference from the parental peptide) |
| chain 1 T12P | -5.93 log2 (difference from the parental peptide) |
| chain 1 A9S | -1.59 log2 (difference from the parental peptide) |
| chain 1 A9L | 0.282 log2 (difference from the parental peptide) |
| chain 1 A9W | 1.99 log2 (difference from the parental peptide) |
| chain 1 A9E | -4.09 log2 (difference from the parental peptide) |
| chain 1 A9I | 0.725 log2 (difference from the parental peptide) |
| chain 1 A9D | -5.49 log2 (difference from the parental peptide) |
